Results reported in patent US20160115199A1 (AADIGEN, published 2016).
Where no end group is shown, it is not given here.

Key:
[1] = target: cdk2/cyclin A complex (UniProt P24941 1-298; P20248 1-432); experiment: cell-based or functional assay
[2] = target: HIV integrase (HIV-1, UniProt P03367 1160-1447); experiment: cell-based or functional assay

| Binder | IC50 of cell proliferation, Hela cells, C4 delivered by VEPEP-4 [1] | IC50 of cell proliferation, MCF7 cells, C4 delivered by VEPEP-4 [1] | IC50 of viral replication (RT activity) on PBMC infected by HIV-1 LAI, PC4D delivered by Short 4 [2] | IC50 of viral replication (RT activity) on PBMC infected by HIV-1 LAI, PC4D delivered by VEPEP-3i [2] | IC50 of viral replication (RT activity) on PBMC infected by HIV-1 LAI, PC4D delivered by VEPEP-3j [2] |
| --- | --- | --- | --- | --- | --- |
| KKQVRMAHLVLT (also: FITC or Cy5 label, position not given here) [C4 peptide (KKQVRMAHLVLT)] | 50 nM | 60 nM | – | – | – |
| RWTEWEWW (also: cyclic, mode of cyclisation not given here) [PC4 cyclic peptide (RWTEWEWW)] | – | – | 0.37 nM | 0.24 nM | 0.17 nM |
